Publication PMC9953004, “Scandium-44 Radiolabeled Peptide and Peptidomimetic Conjugates Targeting Neuropilin-1 Co-Receptor as Potential Tools for Cancer Diagnosis and Anti-Angiogenic Therapy” (Biomedicines, 2023)
Where two headings read alike, the source gives them in different places. Where a SMILES comes first, the peptide text is derived from it. Side-chain parts run from the residue outwards. [ ]: non-standard residue; d: D form. The star is where a group is joined. DOTA = O=C(O)CN1CCN(CC(=O)O)CCN(CC(=O)*)CCN(CC(=O)O)CC1; hArg = N=C(N)NCCCC[C@H](N)C(=O)O; Dab = NCC[C@H](N)C(=O)O; Ahx = NCCCCCC(=O)O

What was measured:
[1] = pH 7.4; cited from earlier work
[2] = assay type: physicochemical; settings: pH 7.4
Procedure: (§1) Radioconjugate stability tests in 0.1 M PBS solution, 1 mM cysteine (Cys) solution, 1 mM histidine (His) solution and human serum (HS) were performed under rigorous conditions according to the procedure described in detail in our previous paper. In brief, isolated radioconjugates were dissolved in 50 µL PBS and appropriate volume of Cys, His and HS solution and then incubated at 37 °C. After the specified incubation time (depending on the half-life of a given radionuclide), which was up to 4–8 h for the ^44Sc-radiocompounds, 4 h for the ^68Ga-radiocompounds and about 6–14 days for the ^177Lu-radiocompounds, aliquots of solution were withdrawn from the mixture and the composition of the solution was analyzed on RP-HPLC in System 3 or 4 with gamma detection. The concentrations of Cys and His solutions were about 1000 times higher than that of the studied radiocompound. In the case of the radioconjugate stability study in HS, the concentration of the radiocompound was a maximum of 2–25 nmol/mL in 100% human serum. After incubation, the protein components were precipitated with a 2.5-fold volume excess of ethanol prior to RP-HPLC analysis, and then both the supernatant and precipitate radioactivity were measured with a Wizard gamma counter. The percentage of radioactivity remaining in the supernatant and bound by the precipitated serum protein components was calculated as the ratio of the radioactivity of the supernatant or the precipitate, respectively, to the sum of the radioactivity of the supernatant and the precipitate.

[3] = physchem; assay type: physicochemical; settings: for logP: pH 7.4, logP ± SD; for logP ± SD: pH 7.4
Procedure: The lipophilicity value, defined as the decimal logarithm (logP) of the partition coefficient (P), was tested in the system of two immiscible (but saturated with each other) phases: 0.1 M PBS solution, pH 7.4, and n-octanol, in three independent experiments. Partition coefficient was determined as a ratio of radioactivity of the organic (n-octanol) and aqueous (PBS solution) phases and was shown as the mean ± SD. The lipophilicity test was carried out as follows: the tested radiocompound dissolved in 10–20 µL of PBS was incubated and intensively mixed in an equal amount of these two phases. After centrifugation, radioactivity of appropriate amounts of the separated organic (500 µL) and aqueous (100 µL) phases were measured on the Wizard gamma counter. Differences in the volume of phases taken for measurement resulted from the very low radioactivity of organic phases and were included in the calculations. Additionally, to confirm the stability of the studied radiocompounds during the experiment, the RP-HPLC analyses of the aqueous phase were performed after each lipophilicity test.

[4] = assay type: in vitro ADME, human
Procedure: as §1

Compound	logP ± SD [1]	stability in PBS buffer [2]	logP [3]	stability in human serum [4]	logP ± SD [3]
[^68Ga]Ga-DOTA-Ahx-A7R [^68Ga-1]	−3.92 ± 0.03				
[^177Lu]Lys(hArg)-Dab(Ahx-DOTA-Lu)-Pro-Arg [^177Lu-2]	−3.75 ± 0.08				
[^68Ga]Lys(hArg)-Dab(Ahx-DOTA-Ga)-Pro-Arg [^68Ga-2]	−4.57 ± 0.05				
CC(C)C[C@H](NC(=O)[C@H](Cc1c[nH]c2ccccc12)NC(=O)[C@@H](NC(=O)[C@H](C)NC(=O)CCCCCNC(=O)CN1CCN(CC(=O)O)CCN(CC(=O)O)CCN(CC(=O)O)CC1)[C@@H](C)O)C(=O)N1CCC[C@H]1C(=O)N1CCC[C@H]1C(=O)N[C@@H](CCCNC(=N)N)C(=O)O [^44Sc-1, [^44Sc]Sc-DOTA-Ahx-A7R, metal not drawn] ({DOTA-Ahx}-ATWLPPR-OH)		complete stability	-3.44 ± 0.02	insufficient stability	
CC(C)C[C@@H](NC(=O)[C@H]1CCCN1C(=O)[C@H]1CCCN1C(=O)[C@H](N)CCCNC(=N)N)C(=O)N[C@H](Cc1c[nH]c2ccccc12)C(=O)N[C@@H](C(=O)N[C@H](C)C(=O)N[C@H](CCCCNC(=O)CN1CCN(CC(=O)O)CCN(CC(=O)O)CCN(CC(=O)O)CC1)C(=O)O)[C@H](C)O [^177Lu-3, [^177Lu]^DR7A-^DLys(DOTA-Lu), metal not drawn] (H-[dR][dP][dP][dL][dW][dT][dA][dK](DOTA)-OH)		complete stability		insufficient stability	−4.48 ± 0.05
[^177Lu]Lu-DOTA-Ahx-A7R [^177Lu-1]	−3.40 ± 0.14				
CC(C)C[C@@H](NC(=O)[C@H]1CCCN1C(=O)[C@H]1CCCN1C(=O)[C@H](N)CCCNC(=N)N)C(=O)N[C@H](Cc1c[nH]c2ccccc12)C(=O)N[C@@H](C(=O)N[C@H](C)C(=O)N[C@H](CCCCNC(=O)CN1CCN(CC(=O)O)CCN(CC(=O)O)CCN(CC(=O)O)CC1)C(=O)O)[C@H](C)O [^44Sc-3, [^44Sc]^DR7A-^DLys(DOTA-Sc), metal not drawn] (H-[dR][dP][dP][dL][dW][dT][dA][dK](DOTA)-OH)		complete stability		insufficient stability	−3.61 ± 0.03
N=C(N)NCCCC[C@H](N)C(=O)NCCCC[C@H](N)C(=O)N[C@@H](CCNC(=O)CCCCCNC(=O)CN1CCN(CC(=O)O)CCN(CC(=O)O)CCN(CC(=O)O)CC1)C(=O)N1CCC[C@H]1C(=O)N[C@@H](CCCNC(=N)N)C(=O)O [^44Sc-2, [^44Sc]Sc-DOTA-Ahx-K4R, metal not drawn] (H-K(hArg)[Dab]([Ahx-DOTA])PR-OH)		complete stability	-2.57 ± 0.02	insufficient stability	
CC(C)C[C@H](NC(=O)[C@H](Cc1c[nH]c2ccccc12)NC(=O)[C@@H](NC(=O)[C@H](C)NC(=O)[C@@H](N)CCCCNC(=O)CN1CCN(CC(=O)O)CCN(CC(=O)O)CCN(CC(=O)O)CC1)[C@@H](C)O)C(=O)N1CCC[C@H]1C(=O)N1CCC[C@H]1C(=O)N[C@@H](CCCNC(=N)N)C(=O)O [^68Ga-1bis, [^68Ga]Lys(DOTA-Ga)-A7R, metal not drawn] (H-K(DOTA)ATWLPPR-OH)		complete stability		insufficient stability	−4.18 ± 0.07
CC(C)C[C@H](NC(=O)[C@H](Cc1c[nH]c2ccccc12)NC(=O)[C@@H](NC(=O)[C@H](C)NC(=O)[C@@H](N)CCCCNC(=O)CN1CCN(CC(=O)O)CCN(CC(=O)O)CCN(CC(=O)O)CC1)[C@@H](C)O)C(=O)N1CCC[C@H]1C(=O)N1CCC[C@H]1C(=O)N[C@@H](CCCNC(=N)N)C(=O)O [^44Sc-1bis, [^44Sc]Lys(DOTA-Sc)-A7R, metal not drawn] (H-K(DOTA)ATWLPPR-OH)		complete stability		insufficient stability	−3.56 ± 0.06
CC(C)C[C@@H](NC(=O)[C@H]1CCCN1C(=O)[C@H]1CCCN1C(=O)[C@H](N)CCCNC(=N)N)C(=O)N[C@H](Cc1c[nH]c2ccccc12)C(=O)N[C@@H](C(=O)N[C@H](C)C(=O)N[C@H](CCCCNC(=O)CN1CCN(CC(=O)O)CCN(CC(=O)O)CCN(CC(=O)O)CC1)C(=O)O)[C@H](C)O [^68Ga-3, [^68Ga]^DR7A-^DLys(DOTA-Ga), metal not drawn] (H-[dR][dP][dP][dL][dW][dT][dA][dK](DOTA)-OH)		complete stability		insufficient stability	−4.11 ± 0.06
CC(C)C[C@H](NC(=O)[C@H](Cc1c[nH]c2ccccc12)NC(=O)[C@@H](NC(=O)[C@H](C)NC(=O)[C@@H](N)CCCCNC(=O)CN1CCN(CC(=O)O)CCN(CC(=O)O)CCN(CC(=O)O)CC1)[C@@H](C)O)C(=O)N1CCC[C@H]1C(=O)N1CCC[C@H]1C(=O)N[C@@H](CCCNC(=N)N)C(=O)O [^177Lu-1bis, [^177Lu]Lys(DOTA-Lu)-A7R, metal not drawn] (H-K(DOTA)ATWLPPR-OH)		complete stability		insufficient stability	−4.45 ± 0.03
